Target: hnRNPA1, endogenous, P09651
Assay: cross-linking; DSG cross-linking, sample not named in the text (Supplementary Fig. 2a); nucleo-cytoplasmic fractionation; immunoblot, 4–12% denaturing polyacrylamide gels
Details: remark: other sources report otherwise

B1: hnRNPA1, endogenous, P09651 1-372 (natural protein)
chain: MSKSESPKEPEQLRKLFIGGLSFETTDESLRSHFEQWGTLTDCVVMRDPNTKRSRGFGFVTYATVEEVDAAMNARPHKVDGRVVEPKRAVSREDSQRPGAHLTVKKIFVGGIKEDTEEHHLRDYFEQYGKIEVIEIMTDRGSGKKRGFAFVTFDDHDSVDKIVIQKYHTVNGHNCEVRKALSKQEMASASSSQRGRSGSGNFGGGRGGGFGGNDNFGRGGNFSGRGGFGGSRGGGGYGGSGDGYNGFGNDGGYGGGGPGYSGGSRGYGSGGQGYGNQGSGYGGSGSYDSYNNGGGGGFGGGSGSNFGGGGSYNDFGNYNNQSSNFGPMKGGNFGGRSSGPYGGGGQYFAKPRNQGGYGGSSSSSSYGSGRRF
Binder B1 has a stoichiometry N of 2.
